This series relates to Bacillus subtilis. The series can be described thus: cleaved RNA product abundance (RNA/gDNA barcode ratio) relative to median wild-type variant (ratio to wild type); higher = more accumulation of the downstream cleavage product. Conditions: experiment (reporter, strain, medium): exp 8a: truncated aprE reporter, strain BJT201 with 2% xylose (RNase J1 expressed); cleavage site: glnRA (positions -5 to +31 mutated). In short, it runs like this: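 The B. subtilis chromosome carried reporter mRNAs, truncated aprE or tetM, containing barcoded RNase Y cleavage-site windows mutagenized using oligos with a 9% error rate. After growth in LB at 37°C from OD600 0.0003 to 0.3, cleaved RNA was gel-selected, reverse transcribed and barcode-sequenced next to genomic DNA barcodes, with UMI collapsing. Each construct's RNA:gDNA barcode ratio was scaled to the median construct with the unmutated site. That scaled ratio is reported as cleaved product abundance.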
For “CGACATGTCCCGCTTCTTTCATTATTCCGATAGCAACTGTTTTGCTATATACATTTACCTTTTAAGAGGAGGAAT”, the “cleaved RNA product abundance” value was found to be 0.898.

In the case of “CGACATGTCCCGCTTCTTTCATTATTCCGATATCAATTGTTTCGCTATATACATTTACCTTTTAAGAGGAGGAAT”, the “cleaved RNA product abundance” value turned out to be 0.147.

Take “CGACATGTCCCGCTTCTTTCATTATTCCGTAAGCAACTGTTTTGCTATATACATTTACCTTTTAAGAGGAGGAAT”: the “cleaved RNA product abundance” value was determined as 0.594.

“CGACATGTCCCGCTTCTTTCATTATTCCGTAAGCGACTGTTTTGATATATACATTTACCTTTTAAGAGGGGGAAT”: the “cleaved RNA product abundance” value worked out at 0.359.

In the case of “CGACATGTCCCGCTTCTTTCATTATTCCGTCAGCAACTGTTTTGCTATATACATTTACCTTTTAAGAGGAGGAAT”, the “cleaved RNA product abundance” value worked out at 0.502.

For “CGACATGTCCCGCTTCTTTCATTATTCCGTGAGCAACTGTTTTGATATATACATTTACCTTTTAAGAGGAGGAAT”, the “cleaved RNA product abundance” value worked out at 0.52.

With “CGACATGTCCCGCTTCTTTCATTATTCCGTGAGCAACTGTTTTGCTATATACATTTACCTTTTAAGAGGAGGAAT”, the “cleaved RNA product abundance” value is 0.62.

For “CGACATGTCCCGCTTCTTTCATTATTCCGTGAGCAACTGTTTTTCTATATACATTTACCTTTTAAGAGGAGGAAT”, the “cleaved RNA product abundance” value came to 0.407.

In the case of “CGACATGTCCCGCTTCTTTCATTATTCCGTTAACAACAGTTTTGCTATATACATTTACCTTTTAAGAGGAGGAAT”, the “cleaved RNA product abundance” value turned out to be 0.271.

Turning to “CGACATGTCCCGCTTCTTTCATTATTCCGTTAACAACTATTTTGCTATATACATTTACCTTTTAAGAGGAGGAAT”, the “cleaved RNA product abundance” value stood at 0.283.

As to “CGACATGTCCCGCTTCTTTCATTATTCCGTTAACAACTGTTTTACTATATACATTTACCTTTTAAGAGGAGGAAT”, the “cleaved RNA product abundance” value amounted to 0.257.

As to “CGACATGTCCCGCTTCTTTCATTATTCCGTTAACAACTGTTTTGCTATATACATATACCTTTTAAGAGGAGGAAT”, the “cleaved RNA product abundance” value turned out to be 0.239.

For “CGACATGTCCCGCTTCTTTCATTATTCCGTTAACAACTGTTTTGCTATATACATTTACCTTTTAAGAGGAGGAAT”, the “cleaved RNA product abundance” value came to 0.312.

Consider “CGACATGTCCCGCTTCTTTCATTATTCCGTTAACAACTGTTTTGCTATATACATTTATCTTTTAAGAGGAGGAAT”, for which the “cleaved RNA product abundance” value was 0.27.

For the sequence “CGACATGTCCCGCTTCTTTCATTATTCCGTTAACAACTGTTTTGCTATATACTTTTACCTTTTAAGAGGAGGAAT”, the “cleaved RNA product abundance” value is 0.273.

In the case of “CGACATGTCCCGCTTCTTTCATTATTCCGTTAACAACTGTTTTGCTATATTCATTTACCTTTTAAGAGGAGGAAT”, the “cleaved RNA product abundance” value was 0.155.

On to “CGACATGTCCCGCTTCTTTCATTATTCCGTTACCAAATGTTTTGCTATATACATTTACCTTTTAAGAGGAGGAAT”, for which the “cleaved RNA product abundance” value came out at 0.265.

With “CGACATGTCCCGCTTCTTTCATTATTCCGTTACCAACTGTTTTGCTATATACATTTACCTTTTAAGAGGAGGAAT”, the “cleaved RNA product abundance” value was determined as 0.289.

Consider “CGACATGTCCCGCTTCTTTCATTATTCCGTTAGAAACTGTTTTGCTATATACACTTACCTTTTAAGAGGAGGAAT”, for which the “cleaved RNA product abundance” value came out at 0.302.

As to “CGACATGTCCCGCTTCTTTCATTATTCCGTTAGAAACTGTTTTGCTATATACATTTACCTTTTAAGAGGAGGAAT”, the “cleaved RNA product abundance” value was 0.309.

In the case of “CGACATGTCCCGCTTCTTTCATTATTCCGTTAGCAAATGTTGTGCTATATACATTTACCTTTTAAGAGGAGGAAT”, the “cleaved RNA product abundance” value was 0.444.

On to “CGACATGTCCCGCTTCTTTCATTATTCCGTTAGCAAATGTTTTGCTATATACATTTACCTTTTAAGAGGAGGAAT”, for which the “cleaved RNA product abundance” value is 1.75.

For “CGACATGTCCCGCTTCTTTCATTATTCCGTTAGCAACAGTTTTGCTATATACATTTACCTTTTAAGAGGAGGAAT”, the “cleaved RNA product abundance” value is 1.12.

As for “CGACATGTCCCGCTTCTTTCATTATTCCGTTAGCAACGGTTTTGCTATATACATTTACCTTTTAAGAGGAGGAAT”, the “cleaved RNA product abundance” value was found to be 0.56.

As for “CGACATGTCCCGCTTCTTTCATTATTCCGTTAGCAACTATTTTGCTATATACATTTACCTTTTAAGAGGAGGAAT”, the “cleaved RNA product abundance” value turned out to be 1.91.

“CGACATGTCCCGCTTCTTTCATTATTCCGTTAGCAACTATTTTTCTATATACATTTACCTTTTAAGAGGAGGAAT”: the “cleaved RNA product abundance” value turned out to be 0.956.

For the sequence “CGACATGTCCCGCTTCTTTCATTATTCCGTTAGCAACTCTTTTGCTAAATACATTTACCTTTTAAGAGGAGGAAT”, the “cleaved RNA product abundance” value was 0.422.

As to “CGACATGTCCCGCTTCTTTCATTATTCCGTTAGCAACTCTTTTGCTATATACATTTACCTTTTAAGAGGAGGAAT”, the “cleaved RNA product abundance” value came to 2.3.

For the sequence “CGACATGTCCCGCTTCTTTCATTATTCCGTTAGCAACTGCTTTGCTATATACATTTACCTTTTAAGAGGAGGAAT”, the “cleaved RNA product abundance” value stood at 0.681.

As for “CGACATGTCCCGCTTCTTTCATTATTCCGTTAGCAACTGGTTTGCTATATACATTTACCTTTTAAGAGGAGGAAT”, the “cleaved RNA product abundance” value stood at 1.54.
